B1: MurG glycosyltransferase from Bordetella pertussis, N-terminal Strep-tagged (enzyme, UniProt Q7VUQ3 1-357, looked up)
chain: MSAPTILIMAGGTGGHIMPGLAVAEVLRERGWRVLWLGNPDKMEGRLVPPRGIELVPLRFQGVRGRGAAALLKLPFLLARACAQAWRRLADIRPDVVLGMGGYVAFPGGVMAALRRTPLVVHEQNAVAGTANRWLARLARRVLSGFPGVLPRGEALGNPVRADLCALPEPAERYAGRSGALRVLVVGGSLGAHALNTTVPQALALLPEQARPQVVHQAGEQHLPALQQAYAQAGVQADCRAFIDDMADAMAQADLLICRAGAMTVSEVAAAGVAALFVPFPHAIDDHQTANARFLSDAQAAWLQPQASLTPQWLAQWLGQRTRQELQAVAGRARTHALPRAAAHIADVCEQAARRAS
notes: MurG, Bordetella pertussis strain ATCC 9797/DSM No 5571; printed as a 357-residue protein; the murG gene was cloned into a modified pET30b; The Strep-tag is TEV-cleavable, but no cleavage is described; It is not clear whether the 357 residues include the tag; The oligomeric state depends on detergent: dimer in DDM/DM, tetramers and higher without; The discussion gives a mass of 50 kDa; also …

Assays:
[1] = biological target: MurE-MurF bifunctional fusion protein from Bordetella pertussis, His-tagged (Bordetella pertussis (strain ATCC 9797/DSM No 5571))
[2] = biological target: MurE-MurF bifunctional fusion protein from Bordetella pertussis, His-tagged (Bordetella pertussis (strain ATCC 9797/DSM No 5571)); test: AUC; sedimentation velocity, dimer pool of MurE-MurF at 40, 10 and 2.5 μM, 42,000 rpm, 20 °C
[3] = biological target: MurE-MurF bifunctional fusion protein from Bordetella pertussis, His-tagged (Bordetella pertussis (strain ATCC 9797/DSM No 5571)); test: SEC-MALS; larger SEC form (dimer pool) of MurE-MurF; 25 mM HEPES pH 7.5, 300 mM NaCl, 10 mM MgCl2, 5% glycerol; room temperature
[4] = biological target: the molecule itself; test: AUC; sedimentation velocity, MurG 2 mg/ml in buffer with DM (1.2 x CMC), 42,000 rpm, 20 °C
[5] = biological target: FITC-labelled MurE-MurF fusion protein from Bordetella pertussis (Bordetella pertussis (strain ATCC 9797/DSM No 5571)); test: MST; FITC-labelled MurE-MurF at a fixed concentration, MurG purified in detergent titrated; 25 mM HEPES pH 7.5, 150 mM NaCl, 10 mM MgCl2, 5% glycerol, 0.17% w/v DM; 22 °C; triplicate
[6] = biological target: FITC-labelled MurE-MurF fusion protein from Bordetella pertussis (Bordetella pertussis (strain ATCC 9797/DSM No 5571)); test: MST; FITC-labelled MurE-MurF at a fixed concentration, oligomeric MurG (purified without detergent) titrated from 1 nM to 37 μM; 25 mM HEPES pH 7.5, 150 mM NaCl, 10 mM MgCl2, 5% glycerol, no detergent; apparent KD, no clear plateau

Molecule	specific activity of the MurF-catalysed reaction (D-Ala-D-Ala-adding) of the dimeric form of MurE-MurF; the monomeric form gave 14.1 µmol/min/mg [1] [µmol/min/mg]	stoichiometry N [2]	stoichiometry N [3]	stoichiometry N [4]	Kd [5] [nM]	Kd [6] [nM]
MurE-MurF bifunctional fusion protein from Bordetella pertussis, His-tagged (enzyme)	7.5	2	2			
B1				2	570	970
